In patent US20210388087A1 (Chugai, published 2021):
Positions count from the first letter of the chain named. Numbers in names are those of the source.

B1: H183/L072 VH N31P (antibody, name in Kabat numbering, V domains shown)
VH: QVQLVESGGGLVQPGRSLRLSCAASGFTFSPAWMHWVRQAPGKGLEWVAQIKDKGNAYAAYYAPSVKGRFTISRDDSKNSIYLQMNSLKTEDTAVYYCHYVHYASASTVLPAFGVDAWGQGTTVTVSS
VL: DIVMTQSPLSLPVTPGEPASISCQASQELVHMNRNTYLHWYQQKPGQAPRLLIYKVSNRFPGVPDRFSGSGSGTDFTLKISRVEAEDVGVYYCAQGTSVPFTFGQGTKLEIK
B2: H183/L072 VH N53H (antibody, name in Kabat numbering, V domains shown)
VH: B1 VH with P31N, N56H
VL: B1 VL
B3: H183/L072 VH N53D (antibody, name in Kabat numbering, V domains shown)
VH: B1 VH with P31N, N56D
VL: B1 VL
B4: H183/L072 VH N53F (antibody, name in Kabat numbering, V domains shown)
VH: B1 VH with P31N, N56F
VL: B1 VL
B5: H183/L072 VH N31V (antibody, name in Kabat numbering, V domains shown)
VH: B1 VH with P31V
VL: B1 VL
B6: H183/L072 VH N53I (antibody, name in Kabat numbering, V domains shown)
VH: B1 VH with P31N, N56I
VL: B1 VL
B7: H183/L072 VH N31R (antibody, name in Kabat numbering, V domains shown)
VH: B1 VH with P31R
VL: B1 VL
B8: H183/L072 VH N31Y (antibody, name in Kabat numbering, V domains shown)
VH: B1 VH with P31Y
VL: B1 VL
B9: H183/L072 VH N31Q (antibody, name in Kabat numbering, V domains shown)
VH: B1 VH with P31Q
VL: B1 VL
B10: H183/L072 VH N31S (antibody, name in Kabat numbering, V domains shown)
VH: B1 VH with P31S
VL: B1 VL
B11: H183/L072 VH N53G (antibody, name in Kabat numbering, V domains shown)
VH: B1 VH with P31N, N56G
VL: B1 VL
B12: H183/L072 VH N31T (antibody, name in Kabat numbering, V domains shown)
VH: B1 VH with P31T
VL: B1 VL
B13: H183/L072 VH N53L (antibody, name in Kabat numbering, V domains shown)
VH: B1 VH with P31N, N56L
VL: B1 VL
B14: H183/L072 VH N31W (antibody, name in Kabat numbering, V domains shown)
VH: B1 VH with P31W
VL: B1 VL
B15: H183/L072 VH N53E (antibody, name in Kabat numbering, V domains shown)
VH: B1 VH with P31N, N56E
VL: B1 VL
B16: H183/L072 VH N53A (antibody, name in Kabat numbering, V domains shown)
VH: B1 VH with P31N, N56A
VL: B1 VL
B17: H183/L072 VH N53K (antibody, name in Kabat numbering, V domains shown)
VH: B1 VH with P31N, N56K
VL: B1 VL

Target: T1, Human CD3eg linker (human)
T1 construct: Single chain: epsilon and gamma subunits of human CD3 joined by a 29-mer linker, Flag-tag at the C-terminus; also called recombinant human CD3
T1 chain: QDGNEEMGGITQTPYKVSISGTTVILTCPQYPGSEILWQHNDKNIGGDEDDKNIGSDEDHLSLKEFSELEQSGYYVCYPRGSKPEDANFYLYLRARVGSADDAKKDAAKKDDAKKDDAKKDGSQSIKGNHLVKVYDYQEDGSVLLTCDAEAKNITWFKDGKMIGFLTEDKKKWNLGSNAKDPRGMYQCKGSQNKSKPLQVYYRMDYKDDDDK
Experiment: Biacore SPR, vs template H183/L072

| Binder | fold change of affinity |
| --- | --- |
| B1 | 0.1 fold |
| B2 | 1.1 fold |
| B3 | 0.4 fold |
| B4 | 0.8 fold |
| B5 | 0.5 fold |
| B6 | 0.4 fold |
| B7 | 0.5 fold |
| B8 | 0.3 fold |
| B9 | 0.2 fold |
| B10 | 0.5 fold |
| B11 | 0.4 fold |
| B12 | 0.6 fold |
| B13 | 0.6 fold |
| B14 | 0.4 fold |
| B15 | 0.5 fold |
| B16 | 0.7 fold |
| B17 | 0.6 fold |
